Test results reported in patent publication US20240175042.

Legend:
[1] = biological target: EIN2-CEND (co-expressed in Arabidopsis mesophyll protoplasts) (UniProt Q9S814)
[2] = biological target: His6-EBF2 (purified) (UniProt Q708Y0)
Sequence of His6-EBF2 (purified) (Q708Y0 whole entry): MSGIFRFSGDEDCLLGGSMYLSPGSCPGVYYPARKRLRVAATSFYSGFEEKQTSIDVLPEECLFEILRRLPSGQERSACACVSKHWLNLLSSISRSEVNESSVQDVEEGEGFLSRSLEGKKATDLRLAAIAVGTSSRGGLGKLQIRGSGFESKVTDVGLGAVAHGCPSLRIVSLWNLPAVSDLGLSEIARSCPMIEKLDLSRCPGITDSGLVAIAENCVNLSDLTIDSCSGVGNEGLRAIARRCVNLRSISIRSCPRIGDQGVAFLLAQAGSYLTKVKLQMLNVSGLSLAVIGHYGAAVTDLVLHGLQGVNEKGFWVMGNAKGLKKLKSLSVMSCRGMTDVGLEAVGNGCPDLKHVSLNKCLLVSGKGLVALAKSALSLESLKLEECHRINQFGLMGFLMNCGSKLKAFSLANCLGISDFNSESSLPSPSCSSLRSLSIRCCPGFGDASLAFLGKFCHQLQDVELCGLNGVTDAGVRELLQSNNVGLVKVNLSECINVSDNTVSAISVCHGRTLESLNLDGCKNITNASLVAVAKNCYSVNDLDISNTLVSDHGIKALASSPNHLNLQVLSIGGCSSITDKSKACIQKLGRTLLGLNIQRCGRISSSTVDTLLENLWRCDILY

Sequence of EIN2-CEND (co-expressed in Arabidopsis mesophyll protoplasts) (Q9S814 462-1294): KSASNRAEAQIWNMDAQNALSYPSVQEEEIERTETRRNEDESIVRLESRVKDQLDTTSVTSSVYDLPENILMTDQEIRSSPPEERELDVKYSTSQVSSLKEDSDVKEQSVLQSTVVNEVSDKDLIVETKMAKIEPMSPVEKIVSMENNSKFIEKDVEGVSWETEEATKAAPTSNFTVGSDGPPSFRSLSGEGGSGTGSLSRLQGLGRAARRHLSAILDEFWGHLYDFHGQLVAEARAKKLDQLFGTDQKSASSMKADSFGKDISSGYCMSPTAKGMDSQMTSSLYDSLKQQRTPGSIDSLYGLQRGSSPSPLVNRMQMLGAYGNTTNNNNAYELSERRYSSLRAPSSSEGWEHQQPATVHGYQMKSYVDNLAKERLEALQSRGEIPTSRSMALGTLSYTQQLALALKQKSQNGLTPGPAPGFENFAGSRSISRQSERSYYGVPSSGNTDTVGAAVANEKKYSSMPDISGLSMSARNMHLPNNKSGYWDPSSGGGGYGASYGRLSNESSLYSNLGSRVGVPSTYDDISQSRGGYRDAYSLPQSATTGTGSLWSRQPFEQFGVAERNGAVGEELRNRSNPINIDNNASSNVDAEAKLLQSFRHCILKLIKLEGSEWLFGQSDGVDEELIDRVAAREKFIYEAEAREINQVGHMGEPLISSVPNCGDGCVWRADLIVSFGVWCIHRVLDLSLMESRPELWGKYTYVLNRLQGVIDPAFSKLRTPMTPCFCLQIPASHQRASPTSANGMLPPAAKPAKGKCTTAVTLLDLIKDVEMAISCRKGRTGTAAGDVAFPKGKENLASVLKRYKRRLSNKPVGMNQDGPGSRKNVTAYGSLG
Sequence of CTR1-KD^AAA (CTR1 kinase domain with T704A/S707A/S710A, expressed in Arabidopsis mesophyll protoplasts) (chain, as listed by the source T704A S707A S710A): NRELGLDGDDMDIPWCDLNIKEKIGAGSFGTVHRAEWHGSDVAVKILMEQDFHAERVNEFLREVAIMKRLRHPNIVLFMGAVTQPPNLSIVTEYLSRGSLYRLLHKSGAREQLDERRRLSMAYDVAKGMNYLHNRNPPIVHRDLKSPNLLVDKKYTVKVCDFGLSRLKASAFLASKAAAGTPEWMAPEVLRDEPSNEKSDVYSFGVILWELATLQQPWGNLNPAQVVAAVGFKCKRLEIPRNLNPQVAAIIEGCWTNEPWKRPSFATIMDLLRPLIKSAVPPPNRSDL
Sequence of His6-CTR1-KD^WT (purified CTR1 kinase domain, residues 531-821) (chain, as listed by the source): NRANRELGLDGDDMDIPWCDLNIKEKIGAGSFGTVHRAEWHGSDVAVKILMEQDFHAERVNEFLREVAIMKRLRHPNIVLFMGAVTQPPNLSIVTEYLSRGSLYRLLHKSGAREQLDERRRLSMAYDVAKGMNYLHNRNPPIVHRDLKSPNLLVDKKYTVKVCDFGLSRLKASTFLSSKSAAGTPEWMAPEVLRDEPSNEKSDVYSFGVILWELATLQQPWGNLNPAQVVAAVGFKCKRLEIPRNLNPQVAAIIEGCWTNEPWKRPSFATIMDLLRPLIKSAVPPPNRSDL
Sequence of CTR1-KD (wild-type CTR1 kinase domain lacking the N-terminal domain, expressed in Arabidopsis mesophyll protoplasts) (chain, as listed by the source): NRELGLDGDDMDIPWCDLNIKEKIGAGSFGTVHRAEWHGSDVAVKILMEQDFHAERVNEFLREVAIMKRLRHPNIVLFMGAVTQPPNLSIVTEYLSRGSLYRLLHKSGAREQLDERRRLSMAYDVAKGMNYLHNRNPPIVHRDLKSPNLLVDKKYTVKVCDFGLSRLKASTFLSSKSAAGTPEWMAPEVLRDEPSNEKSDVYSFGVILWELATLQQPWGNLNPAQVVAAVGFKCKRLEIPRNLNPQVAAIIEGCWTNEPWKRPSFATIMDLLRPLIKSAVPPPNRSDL

Substance	Phos-tag gel band shift of EIN2-CEND on co-expression in Arabidopsis mesophyll protoplasts [1]	in vitro kinase assay ([γ-32P]ATP incorporation, autoradiography) [2]
CTR1-KD (wild-type CTR1 kinase domain lacking the N-terminal domain, expressed in Arabidopsis mesophyll protoplasts)	Wild-type CTR1-KD, but not CTR1-KD^AAA, phosphorylated EIN2-CEND when co-expressed in Arabidopsis mesophyll protoplasts	–
CTR1-KD^AAA (CTR1 kinase domain with T704A/S707A/S710A, expressed in Arabidopsis mesophyll protoplasts)	Wild-type CTR1-KD, but not CTR1-KD^AAA, phosphorylated EIN2-CEND when co-expressed in Arabidopsis mesophyll protoplasts	–
His6-CTR1-KD^WT (purified CTR1 kinase domain, residues 531-821)	–	in vitro kinase assay demonstrated that CTR1 does not phosphorylate EBF2
